Experimental data reported in publication PMC3597688 (Nucleic Acids Research, 2013).
Values joined by “and” are separate entries in the source; they are usually repeats but may differ in a detail not shown here. Identical values can stand only once.

How the values were obtained:
SEC = biological target: the molecule itself; test: SEC
[1] = biological target: the molecule itself; test: negative-stain electron microscopy and electron tomography

Protein | stoichiometry N (SEC) | stoichiometry N [1]
ssoMCM F540A mutant (full length) (natural protein, Sulfolobus solfataricus, UniProt Q9UXG1 1-686, looked up) MEIPSKQIDYRDVFIEFLTTFKGNNNQNKYIERINELVAYRKKSLIIEFSDVLSFNENLAYEIINNTKIILPILEGALYDHILQLDPTYQRDIEKVHVRIVGIPRVIELRKIRSTDIGKLITIDGILVKVTPVKERIYKATYKHIHPDCMQEFEWPEDEEMPEVLEMPTICPKCGKPGQFRLIPEKTKLIDWQKAVIQERPEEVPSGQLPRQLEIILEDDLVDSARPGDRVKVTGILDIKQDSPVKRGSRAVFDIYMKVSSIEVSQKVLDEVIISEEDEKKIKDLAKDPWIRDRIISSIAPSIYGHWELKEALALALFGGVPKVLEDTRIRGDIHILIIGDPGTAKSQMLQFISRVAPRAVYTTGKGSTAAGLTAAVVREKGTGEYYLEAGALVLADGGIAVIDEIDKMRDEDRVAIHEAMEQQTVSIAKAGIVAKLNARAAVIAAGNPKFGRYISERPVSDNINLPPTILSRFDLIFILKDQPGEQDRELANYILDVHSGKSTKNIIDIDTLRKYIAYARKYVTPKITSEAKNLITDFAVEMRKKSSETPDSPILITPRQLEALIRISEAYAKMALKAEVTREDAERAINIMRLFLESVGVDMESGKIDIDTIMTGKPKSAREKMMKIIEIIDSLAVSSECAKVKDILKEAQQVGIEKSNIEKLLTDMRKSGIIYEAKPECYKKV | ~3 | 6 and 8
ssoMCM G485P/G501P mutant (alpha5-linker mutant, full length) (natural protein, Sulfolobus solfataricus, UniProt Q9UXG1 1-686, looked up) MEIPSKQIDYRDVFIEFLTTFKGNNNQNKYIERINELVAYRKKSLIIEFSDVLSFNENLAYEIINNTKIILPILEGALYDHILQLDPTYQRDIEKVHVRIVGIPRVIELRKIRSTDIGKLITIDGILVKVTPVKERIYKATYKHIHPDCMQEFEWPEDEEMPEVLEMPTICPKCGKPGQFRLIPEKTKLIDWQKAVIQERPEEVPSGQLPRQLEIILEDDLVDSARPGDRVKVTGILDIKQDSPVKRGSRAVFDIYMKVSSIEVSQKVLDEVIISEEDEKKIKDLAKDPWIRDRIISSIAPSIYGHWELKEALALALFGGVPKVLEDTRIRGDIHILIIGDPGTAKSQMLQFISRVAPRAVYTTGKGSTAAGLTAAVVREKGTGEYYLEAGALVLADGGIAVIDEIDKMRDEDRVAIHEAMEQQTVSIAKAGIVAKLNARAAVIAAGNPKFGRYISERPVSDNINLPPTILSRFDLIFILKDQPPEQDRELANYILDVHSPKSTKNIIDIDTLRKYIAYARKYVTPKITSEAKNLITDFFVEMRKKSSETPDSPILITPRQLEALIRISEAYAKMALKAEVTREDAERAINIMRLFLESVGVDMESGKIDIDTIMTGKPKSAREKMMKIIEIIDSLAVSSECAKVKDILKEAQQVGIEKSNIEKLLTDMRKSGIIYEAKPECYKKV | ~3 | 
